Patent US20250101100A1 (Bristol-Myers Squibb, published 2025)
Residue numbers refer to the chain shown, from its start. Names may count otherwise. Blank lines part the entries; values can stand above or below the binder they belong to.

Columns and labels:
[1] = molecular target: T1, cynomolgus NKG2A-CD94-mFc (cynomolgus monkey, UniProt Q68VD2 94-233); assay: SPR Biacore T200, 37 °C, Fab as analyte over NKG2A-CD94-mFc immobilized on CM4 chip
T1 construct: also called monkey NKG2A-CD94-mFc (truncated construct); cyNKG2A-CD94; not shown: mouse Fc

[2] = molecular target: T2, human NKG2A on cells (human, UniProt P26715 1-233); assay: flow cytometry, blocking of labelled HLA-E pentamer on NKL cells
T2 construct: also called hNKG2A; CHO-hNKG2A

[3] = molecular target: T2, human NKG2A on cells; assay: flow cytometry on CHO cells expressing human NKG2A, anti-human IgG-PE
[4] = molecular target: T2, human NKG2A on cells; assay: flow cytometry on NKL cells (endogenous human NKG2A), anti-human IgG-PE
Method: Cells were washed and stained with fluorescently labeled goat anti-human IgG-PE secondary antibody for 30 minutes at 4° C. to detect the bound antibody on the cell surface. Cells were read fresh on the BD LSRFortessa.

[5] = molecular target: T3, human NKG2C on CHO cells (human, UniProt P26717 1-231); assay: flow cytometry, binding to CHO cells expressing human NKG2C, anti-human IgG-PE
T3 construct: also called CHO-human NKG2C; hNKG2C
Method: As depicted in FIG. 18A, 1×10⁶ human NKG2A-expressing or human NKG2C-expressing CHO cells were incubated with titrating amounts of anti-NKG2A antibody for 30 minutes at 4° C. Cells were washed and stained with fluorescently labeled goat anti-human IgG-PE secondary antibody for 30 minutes at 4° C. to detect the bound antibody on the cell surface. Cells were read fresh on the BD LSRFortessa.

[6] = molecular target: T2, human NKG2A on cells; assay: flow cytometry, blocking of HLA-E pentamer binding to CHO cells expressing human NKG2A
[7] = molecular target: T3, human NKG2C on CHO cells; assay: flow cytometry, blocking of HLA-E pentamer binding to CHO cells expressing human NKG2C
[8] = molecular target: T2, human NKG2A on cells; assay: flow cytometry, blocking of labelled HLA-E pentamer on CHO cells expressing human NKG2A
Method: As depicted in FIG. 20A, 1×10⁶ human NKG2A-expressing CHO cells were incubated with titrating amounts of anti-NKG2A antibody (10 ug/ml) for 30 minutes at 4° C. […] Cells were read fresh on the BD LSRFortessa.

[9] = molecular target: T4, cynomolgus monkey NKG2A on cells (cynomolgus monkey, UniProt Q68VD2 1-233); assay: flow cytometry on CHO cells expressing cynomolgus NKG2A
T4 construct: whole, on cells; On transfected CHO cells or on NK cells of cynomolgus PBMC / blood; also called CHO-cyno NKG2A; CHO-cynomolgus NKG2A
Method: The ability of anti-NKG2A antibodies that bound to cynomolgus NKG2A-expressing CHO cells was assessed. As depicted in FIG. 22A, 1×10⁶ cynomolgus NKG2A-expressing CHO cells were incubated with titrating amounts of anti-NKG2A antibody (10 ug/ml) 10 for 30 minutes at 4° C. […] Cells were read fresh on the BD LSRFortessa.

[10] = molecular target: T3, human NKG2C on CHO cells; assay: FACS on CHO cells engineered to express human NKG2C-CD94
[11] = molecular target: T5, human NKG2A-CD94 heterodimer (extracellular domains) (human, UniProt Q13241 32-179); assay: SPR Biacore T200, 37 °C, antibody captured by anti-human Fc on C1 chip, hNKG2A-hCD94 as analyte
T5 construct: extracellular domain; also called hNKG2A-heterodimer; hNKG2A-hCD94

[12] = molecular target: T2, human NKG2A on cells; assay: flow cytometry on CHO cells expressing human NKG2A
[13] = molecular target: T5, human NKG2A-CD94 heterodimer …; assay: SPR Biacore T200, 37 °C, antibody captured by anti-hFc on CM4 chip, heterodimer as analyte
From the text: (§1) All data were double-referenced and fitted to a 1:1 binding model using the Biacore T200 Evaluation Software version 3.1.

[14] = molecular target: T6, human NKG2C-CD94 heterodimer (extracellular domains) (human, UniProt Q13241 32-179); assay: as above
T6 construct: extracellular domain; also called hNKG2C-heterodimer; hNKG2C-CD94
T6 sequence (chain, as listed by the source, chain 1 of 2): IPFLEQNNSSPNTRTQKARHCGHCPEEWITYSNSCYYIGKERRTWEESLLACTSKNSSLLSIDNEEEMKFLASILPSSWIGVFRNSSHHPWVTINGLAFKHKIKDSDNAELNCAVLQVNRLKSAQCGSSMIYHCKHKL
T6 sequence (Q13241 32-179, chain 2 of 2): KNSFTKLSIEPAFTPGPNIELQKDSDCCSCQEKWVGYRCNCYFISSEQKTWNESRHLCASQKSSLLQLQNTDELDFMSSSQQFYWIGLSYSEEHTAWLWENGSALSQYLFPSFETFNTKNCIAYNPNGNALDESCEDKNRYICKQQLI
From the text: as §1

T4 sequence (Q68VD2 entry or part of it): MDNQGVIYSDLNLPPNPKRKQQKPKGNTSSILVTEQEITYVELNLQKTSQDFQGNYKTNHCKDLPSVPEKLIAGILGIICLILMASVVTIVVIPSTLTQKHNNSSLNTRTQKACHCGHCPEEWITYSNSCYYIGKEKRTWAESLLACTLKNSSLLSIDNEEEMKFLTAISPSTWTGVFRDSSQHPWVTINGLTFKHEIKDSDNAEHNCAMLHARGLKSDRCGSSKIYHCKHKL
T3 sequence (P26717 other isoform, or with tags, fused parts or gaps): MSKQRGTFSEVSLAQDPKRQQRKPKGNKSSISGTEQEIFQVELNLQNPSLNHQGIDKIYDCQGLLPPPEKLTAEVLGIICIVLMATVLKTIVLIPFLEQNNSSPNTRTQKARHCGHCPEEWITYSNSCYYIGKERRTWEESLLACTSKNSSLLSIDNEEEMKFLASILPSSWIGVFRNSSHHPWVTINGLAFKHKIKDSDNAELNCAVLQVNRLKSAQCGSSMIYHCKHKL
T2 sequence (P26715 whole entry): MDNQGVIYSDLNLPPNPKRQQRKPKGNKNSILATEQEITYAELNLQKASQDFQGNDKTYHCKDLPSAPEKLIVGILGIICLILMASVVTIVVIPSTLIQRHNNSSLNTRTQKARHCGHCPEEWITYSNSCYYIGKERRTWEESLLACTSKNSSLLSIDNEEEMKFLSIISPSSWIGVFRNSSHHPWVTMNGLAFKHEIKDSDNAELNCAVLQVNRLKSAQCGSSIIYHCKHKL
T5 sequence (chain, as listed by the source, chain 1 of 2): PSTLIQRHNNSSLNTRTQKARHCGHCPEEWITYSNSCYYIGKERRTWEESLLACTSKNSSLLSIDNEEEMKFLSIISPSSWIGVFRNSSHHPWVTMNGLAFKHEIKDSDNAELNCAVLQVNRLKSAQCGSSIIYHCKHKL
T5 sequence (Q13241 32-179, chain 2 of 2): as the sequence (Q13241 32-179, chain 2 of 2) above
T1 sequence (Q68VD2 entry or part of it): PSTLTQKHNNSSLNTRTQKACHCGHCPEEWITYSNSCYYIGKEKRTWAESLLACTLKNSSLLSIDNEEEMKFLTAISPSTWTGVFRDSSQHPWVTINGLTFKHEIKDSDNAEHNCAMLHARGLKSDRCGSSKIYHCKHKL

- KD ratio (cy/h) [1]: ~26
- Kd [1]: 1600 nM
B1: NKG2A.9 Fab (Fab, V domains shown)
VH: EVQLVESGGGLVKPGGSLRLSCAASGFTFSSHSMNWVRQAPGKGLEWVSAISSSSSYIYYADSVKGRFTISRDNAKNSLYLQMNSLRAEDTAVYYCAREEWGLPFDYWGQGTLVTVSS
VL: AIQLTQSPSSLSASVGDRVTITCRASQGISSALAWYQQKPGKAPKLLIYDASSLKSGVPSRFSGSGSGTDFTLTISSLQPEDFATYYCQQFNSYPLTFGQGTRLEIK
notes: Fab of NKG2A.9

- IC50 [2]: 0.1 nM
- EC50 [3]: 0.7 nM
- EC50 [4]: 0.1 nM
- EC50 [5]: 9 nM
- IC50 [6]: 1 nM
- IC50 [7]: 54 nM
B2: 11H9.A1 antibody (antibody, human IgG1, kappa, V domains shown)
VH: EVQLVESGGGLVKPGGSLRLSCAASGFTFSSYSMNWVRQAPGKGLEWVSSISSSSSYIYYADSVKGRFTISRDNAKNSLYLQMNSLRAEDTAVYYCARLLWFGEIFDYWGQGTLVTVSS
VL: AIQLTQSPSSLSASVGDRVTITCRASQGISSALAWYQQKPGKAPKLLIYDASSLKSGVPSRFSGSGSGTDFTLTISSLQPEDFATYYCQQFNSYPITFGQGTRLEIKR
notes: Hybridoma antibody; also called 11H9.A4

- EC50 [3]: 0.3 nM
- IC50 [8]: 0.3 nM
B3: NKG2A.5 antibody (antibody, V domains shown)
VH: B2 VH
VL: B1 VL with L96I
notes: also called recombinant 11H9.A4

- EC50 [9]: 1.3 nM
- EC50 [3]: 0.1 nM
- IC50 [8]: 0.05 nM
B4: NKG2A.10 antibody (antibody, IgG1, V domains shown)
VH: B1 VH
VL: B2 VL with S30Q, I96L
notes: IgG1.3f; also called 13F3.A4 VH-I107T, VK-N30Q

- EC50 [3]: 0.1 nM
- IC50 [8]: 0.2 nM
B5: NKG2A.14 antibody (antibody, human IgG1, kappa, V domains shown)
VH: B1 VH with T112I
VL: B2 VL with S30Q, I96L
notes: IgG1.3f; also called 13F3.A4 VK-N30Q

- EC50 [9]: 1.2 nM
- EC50 [3]: 0.2 nM
- IC50 [8]: 0.1 nM
B6: NKG2A.12 antibody (antibody, human IgG1, kappa, V domains shown)
VH: B1 VH
VL: B2 VL with S30N, I96L
notes: IgG1.3f; also called 13F3.A4 VH-I107T

- EC50 [3]: 0.1 nM
- IC50 [8]: 0.1 nM
B7: NKG2A.15 antibody (antibody, human IgG1, kappa)
heavy: EVQLVESGGGLVKPGGSLRLSCAASGFTFSSHSMNWVRQAPGKGLEWVSAISSSSSYIYYADSVKGRFTISRDNAKNSLYLQMNSLRAEDTAVYYCAREEWGLPFDYWGQGILVTVSSASTKGPSVFPLAPSSKSTSGGTAALGCLVKDYFPEPVTVSWNSGALTSGVHTFPAVLQSSGLYSLSSVVTVPSSSLGTQTYICNVNHKPSNTKVDKRVEPKSCDKTHTCPPCPAPEAEGAPSVFLFPPKPKDTLMISRTPEVTCVVVDVSHEDPEVKFNWYVDGVEVHNAKTKPREEQYNSTYRVVSVLTVLHQDWLNGKEYKCKVSNKALPAPIEKTISKAKGQPREPQVYTLPPSREEMTKNQVSLTCLVKGFYPSDIAVEWESNGQPENNYKTTPPVLDSDGSFFLYSKLTVDKSRWQQGNVFSCSVMHEALHNHYTQKSLSLSPGK
light: AIQLTQSPSSLSASVGDRVTITCRASQGIPSALAWYQQKPGKAPKLLIYDASSLKSGVPSRFSGSGSGTDFTLTISSLQPEDFATYYCQQFNSYPLTFGQGTRLEIKRTVAAPSVFIFPPSDEQLKSGTASVVCLLNNFYPREAKVQWKVDNALQSGNSQESVTEQDSKDSTYSLSSTLTLSKADYEKHKVYACEVTHQGLSSPVTKSFNRGEC
notes: IgG1.3f; also called 13F3.A4 VK-N30P

- binding result [10]: no binding
B8: P1-069366 antibody (antibody, V domains shown)
VH: QVQLVESGGGVVQPGRSLRLSCAASGFTFSSYAMHWVRQAPGKGLEWVAVISYDGSYKEYADSVKGRFTISRDSSKNTLYLQMNSLRAEDTAVYYCARAQISEYFDYWGQGTLVTVSS
VL: DIQMTQSPSSLSASVGDRVTITCRASQGISSWLAWYQQKPEKAPKSLIYAASSLQSGVPSRFSGSGSGTDFTLTISSLQPEDFATYYCQQYNSYPLTFGQGTKVEIKR
notes: From the immune antibody library (yeast display); also called P10069366

- EC50 [9]: 1.4 nM
B9: NKG2A.11 antibody (antibody, human IgG1, kappa)
heavy: EVQLVESGGGLVKPGGSLRLSCAASGFTFSSHSMNWVRQAPGKGLEWVSAISSSSSYIYYADSVKGRFTISRDNAKNSLYLQMNSLRAEDTAVYYCAREEWGLPFDYWGQGTLVTVSSASTKGPSVFPLAPSSKSTSGGTAALGCLVKDYFPEPVTVSWNSGALTSGVHTFPAVLQSSGLYSLSSVVTVPSSSLGTQTYICNVNHKPSNTKVDKRVEPKSCDKTHTCPPCPAPEAEGAPSVFLFPPKPKDTLMISRTPEVTCVVVDVSHEDPEVKFNWYVDGVEVHNAKTKPREEQYNSTYRVVSVLTVLHQDWLNGKEYKCKVSNKALPAPIEKTISKAKGQPREPQVYTLPPSREEMTKNQVSLTCLVKGFYPSDIAVEWESNGQPENNYKTTPPVLDSDGSFFLYSKLTVDKSRWQQGNVFSCSVMHEALHNHYTQKSLSLSPG
light: B7 light
notes: Human IgG1.3f, kappa; also called 13F3.A4 VH I107T, VK N30P; 13F3 VH I107T VK N30P

- Half-life of Antibody/Analyte Complex [11]: 3 to 4 s
- Kd [11]: 26 nM
- koff [11]: 0.2 s⁻¹
- kon [11]: 7e+06 M⁻¹ s⁻¹
B10: monalizumab (antibody, V domains shown)
VH: QVQLVQSGAEVKKPGASVKVSCKASGYTFTSYWMNWVRQAPGQGLEWMGRIDPYDSETHYAQKLQGRVTMTTDTSTSTAYMELRSLRSDDTAVYYCARGGYDFDVGTLYWFFDVWGQGTTVTVSS
VL: DIQMTQSPSSLSASVGDRVTITCRASENIYSYLAWYQQKPGKAPKLLIYNAKTLAEGVPSRFSGSGSGTDFTLTISSLQPEDFATYYCQHHYGTPRTFGGGTKVEIKR

- EC50 [12]: 1 nM
- EC50 [9]: 0.6 nM
- IC50 [8]: 1.3 nM
- Half-life of Antibody/Analyte Complex [13]: 19 s
- Kd [13]: 91 nM
- koff [13]: 0.036 s⁻¹
- kon [13]: 400000 M⁻¹ s⁻¹
- Half-life of Antibody/Analyte Complex [14]: 23 s
- Kd [14]: 1100 nM
- koff [14]: 0.03 s⁻¹
- kon [14]: 28000 M⁻¹ s⁻¹
B11: 2G6.C2 antibody (antibody, human IgG1, kappa, V domains shown)
VH: EVQLVESGGGLVQRGGSLRLSCAASGFTFSSNSMNWIRQAPGKGLEWVAHISSGSSFIYYADSVKGRFTISRDNAKNSLSLQMNSLRDEDTAVYYCARDDWGIDAFNIWGQGTMVTVSS
VL: EIVLTQSPATLSLSPGERATLSCRASQSVSSSLAWYQQKPGQAPRLLIYDASNRATGIPARFSGSGSGTDFTLTISSLEPEDFAVYYCQQRSNWIFTFGPGTKVDIKR
notes: Hybridoma antibody

- IC50 [2]: 0.4 nM
- EC50 [3]: 0.6 nM
- EC50 [4]: 0.3 nM
- IC50 [8]: 0.7 nM
B12: 1G5.B2 antibody (antibody, human IgG1, kappa, V domains shown)
VH: QVQLVESGGGVVQPGRSLRLSCAASGFTFSDYAMHWVRQTPGRGLEWLTFISYDGSNKYHADSVKGRFTISRDNSKNTLFLQMNSLRAEDTAVYYCARDSWDRGYFDLWGRGTLVTVSS
VL: EIVLTQSPATLSLSPGERATLSCRASQSVSSYLAWYQQKPGQAPRLLIYDASNRATGIPARFSGSGSGTDFTLTISSLEPEDFAVYYCQQRSNWWTFGQGTKVEIKR
notes: Hybridoma antibody; printed as IG5.B2 in two paragraphs; also called IG5.B2
